Measured values: patent US20240101959A1, “USE OF IL-2R-BETA-GAMMA AGONIST PEPTIDES IN CELL MANUFACTURING” (MEDIKINE, INC., priority 2022, published 2024)
Positions of bridges follow the written chain, without caps; N, C: chain ends. No end group written: not given here.

T1: hu-IL-2Rβ subunit (human, UniProt P14784 27-240, limits assumed)
T1 construct: also called human interleukin-2 receptor subunit β; CD122
T1 sequence (looked up): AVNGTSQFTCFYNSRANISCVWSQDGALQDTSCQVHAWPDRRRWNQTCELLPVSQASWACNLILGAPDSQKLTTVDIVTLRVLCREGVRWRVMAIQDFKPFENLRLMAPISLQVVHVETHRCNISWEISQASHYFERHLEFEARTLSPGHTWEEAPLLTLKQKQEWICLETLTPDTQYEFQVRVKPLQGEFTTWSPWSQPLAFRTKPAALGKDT


Molecular target: T1, hu-IL-2Rβ subunit
Test: phage ELISA competition assay

Binder | IC50
SATWYPCFLANLGELCDLEQEN [SEQ ID NO 373] | < 100 µM
GERWKPCWIAQLGELCDLDFNW [SEQ ID NO 102] | < 100 µM
SGTGPAWYPCFLASLGQLCDLE [SEQ ID NO 383] | < 100 µM
WHPCWMARLGELCDLD [SEQ ID NO 380] | < 100 µM
WYPCSIASLGELCDLE [SEQ ID NO 390] | < 100 µM
RQVPKQWYPCWMAALGELCDLE [SEQ ID NO 368] | < 100 µM
RSGDKAFFPCWLAQLGDLCDLD [SEQ ID NO 375] | < 100 µM
WLPCYMAQLGDLCDLE [SEQ ID NO 391] | < 100 µM
QVMRLWYPCWMAQLGELCDLE [SEQ ID NO 370] | < 100 µM
YAEWYPCWMARVGEVCDLEVTP [SEQ ID NO 374] | < 100 µM
LFPCWLAQLGELCDLE [SEQ ID NO 386] | < 100 µM
WWPCWMAQLGEMCDLEYPYVPG [SEQ ID NO 103] | < 100 µM
TESWYPCWLANLGDLCDLEWSA [SEQ ID NO 378] | < 100 µM
WYPCWMAQLGELCDLDEAPVQP [SEQ ID NO 371] | < 100 µM
RVSYPCWLARLGELCDMDLEE [SEQ ID NO 377] | < 100 µM
QGTKWHWNPCWMAQLGELCDLD [SEQ ID NO 381] | < 100 µM
WLPCWRAQLGQLCDLD [SEQ ID NO 385] | < 100 µM
DSDWWPCWMAQLGELCDLEDAR [SEQ ID NO 101] | < 100 µM
RKHFYPCWMAQLGELCDLEGMP [SEQ ID NO 99] | < 100 µM
MYPCWIAHLGELCDLD [SEQ ID NO 389] | < 100 µM
DIGYYPCWMAQVGDLCDLDDEK [SEQ ID NO 100] | < 100 µM
KNGPKSWYPCWMAQVGDLCDLD [SEQ ID NO 382] | < 100 µM
RDIWWPCWVAQLGELCDLDDPQ [SEQ ID NO 372] | < 100 µM
WLPCWMADVGDLCDLD [SEQ ID NO 379] | < 100 µM

Further lines, results first:

IC50 | Binder
< 100 µM | WYPCWRAQLGELCDLVDLGSHL (disulfide 4-13 (inferred)) [SEQ ID NO 417]
< 100 µM | DMFTHRWYPCSMAKLGELCDLE [SEQ ID NO 405]
< 100 µM | WWPCSIARLGQLCDLD [SEQ ID NO 394]
< 100 µM | AMARRYLPCWIAKLGELCELD (disulfide 9-18 (inferred)) [SEQ ID NO 409]
< 100 µM | WSPCWMASLGDLCDLEETRQTE [SEQ ID NO 418]
< 100 µM | RWTQAQWYPCWLAQLGELCDLE [SEQ ID NO 402]
< 100 µM | ARGEYRWFPCWMARLGELCDLE [SEQ ID NO 410]
< 100 µM | WYPCWLAHLGELCDLDWKGRND [SEQ ID NO 416]
< 100 µM | WYPCWLAQLGELCDAE [SEQ ID NO 396]
< 100 µM | WKPCWMALLGELCDLE [SEQ ID NO 397]
< 100 µM | WYPCWIAKLGEVCDLDQGTTRQ [SEQ ID NO 415]
< 100 µM | LGSKRQWYPCWVAHLGELCDLE [SEQ ID NO 400]
< 100 µM | MTDRAFWNPCWVARLGELCDLD [SEQ ID NO 406]
< 100 µM | VASERFYPCWIARLGELCDVE (disulfide 9-18 (inferred)) [SEQ ID NO 414]
< 100 µM | IERAWEWRPCWLASVGELCDLE [SEQ ID NO 413]
< 100 µM | YLERSRWYPCFIAQLGELCDLE [SEQ ID NO 411]
< 100 µM | ESEGRGWYPCWNALLGELCDLE (disulfide 10-19 (inferred)) [SEQ ID NO 401]
< 100 µM | EEQSRGFLPCWMALLGELCDLD [SEQ ID NO 399]
< 100 µM | LHAGRWNPCWLAQLGELCDLE [SEQ ID NO 403]
< 100 µM | RYPCWRAKLGELCDLD [SEQ ID NO 398]
< 100 µM | VRTRIWYPCWSAQLGELCDLD [SEQ ID NO 408]
< 100 µM | FRVSRDWFPCWMAQLGEVCDLE (disulfide 10-19 (inferred)) [SEQ ID NO 412]
< 100 µM | WYPCWLASLGEVCDLE [SEQ ID NO 393]
< 100 µM | LSSKGWYPCWKARLGDLCDLE (disulfide 9-18 (inferred)) [SEQ ID NO 404]
< 100 µM | NVTYTQWFPCWLARLGELCDLV [SEQ ID NO 407]
